Values of other authors in patent US9034821B2, “Pharmaceutical composition” (priority 2011, dated 2015).
Where two headings read alike, the source gives them in different places.

In the case of “Cys-Tyr-Ile-Gln-Asn-Cys-Pro-Leu-Gly-NH2 [oxytocin]”, the “pH of best stability” value (aqueous solutions of different pH) is given as 4.5, the degradation of oxytocin (buffered aqueous solution of pH 3, stored at 70° C. for 7 days) is given as “about 15 % (area %)” and the degradation of oxytocin (buffered aqueous solution, pH 4, stored at 70° C. for 7 days) is given as “approximately 35 % (area %)”.
